The values below come from patent US20140235820A1, “METHODS AND COMPOSITIONS FOR MODULATING THE Wnt PATHWAY” (Genentech, Inc., priority 2010, published 2014).

In one experiment the target is T1, LRP6 E1 (Homo sapiens, UniProt O75581).
T1 construct: construct E1-amino acids A20-D325 of LPR6; made in house; host or cells: Tni insect cells (baculovirus, secreted)
T1 sequence (O75581 20-325): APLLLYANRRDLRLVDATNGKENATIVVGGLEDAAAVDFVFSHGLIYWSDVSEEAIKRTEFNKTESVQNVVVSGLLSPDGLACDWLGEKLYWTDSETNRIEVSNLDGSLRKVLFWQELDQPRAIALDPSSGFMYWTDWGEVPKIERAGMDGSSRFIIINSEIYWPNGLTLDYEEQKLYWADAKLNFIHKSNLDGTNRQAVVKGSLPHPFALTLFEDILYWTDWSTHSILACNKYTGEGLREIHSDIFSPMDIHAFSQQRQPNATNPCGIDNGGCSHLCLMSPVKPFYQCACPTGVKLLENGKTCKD
Briefly: Synthetic peptide competition binding to LRP6 E1. Conditions: synthetic peptides. The protocol: Alternatively, affinities were determined by fluorescence polarization (FP). A fluorescein-modified peptide probe (30 nM) was mixed with LRP5 or LRP6 E1 domain at a concentration suitable for the affinity of the particular target-probe combination (approximately Kd). Competing test agent (protein or peptide) was then added and FP monitored as a function of concentration of the test agent Inhibition constants were obtained by fitting the resulting curves to standard equations using the program KaleidaGraph (Synergy Software).
Peptide affinities were also determined by competition with phage displaying a binding peptide (competition phage ELISA). Serial dilutions of test peptide were mixed with an appropriate (non-saturating) concentration of phage before exposing the mixture to target and allowing it to reach equilibrium. After washing to remove unbound material, bound phage were detected by incubation with anti-M13 antibody-horseradish peroxidase (HRP) conjugate and exposure to a suitable colorometric HRP substrate.
Finally, peptide affinities were also determined by competition ELISA. Maxi-Sorb plates (Nunc) were coated with streptavidin or NeutrAvidin (5 μg/mL in phosphate-buffered saline (PBS); overnight, 4° C.) then blocked with 0.2% bovine serum albumin (BSA) in PBS (1 h, room temperature). A solution (500 nM in PBS) of biotinylated E1-binding peptide Ac-[…](biotin)-am (disulfide) was added to each well for 30 min, and the wells were then washed 3× with PBS containing 0.05% Tween-20 to remove excess peptide. His-tagged E1 domain or FLAG-tagged E1E2 protein (5-10 nM final concentration) was preincubated for 15 minutes with serially diluted test peptide before addition of the mixture to wells of the assay plate for 30 min. Wells were washed and then probed for bound LRP6 by addition of Qiagen penta His-HRP conjugate or Sigma anti-FLAG M2 HRP conjugate (1:2000 dilution in PBS, 0.2% BSA, 0.05% Tween-20) for 30 min. After washing, TMB substrate was added (Kirkegaard and Perry Laboratories). Wells were quenched with 1 M H3PO4 and plates read at 450 nm. […]

For experiment [1], the target named is T2, human LRP6 construct E1 (amino acids A20-D325) (human, UniProt O75581 20-325).
T2 construct: range 20-325; In the Fab crystal E1 arose from E1E2 degraded beyond Arg 335; residues Ala20 to Lys324 were traced; also called LRP6 E1; E1 domain
T2 sequence (looked up): T1 sequence (O75581 20-325)
Description: X-ray co-crystal structure. An excerpt:
The diffraction data were collected using a monochromatic X-ray beam (12398.1 eV) at the Advanced Light Source (ALS) beam line 5.0.2. The X-ray detection device was an ADSC quantum-210 CCD detector placed 350 mm away from the crystal. Alternatively, data were collected at Stanford Synchrotron Radiation Laboratory (SSRL71), Advanced Photon Souce (APS211DF), or in-house using a Rigaku X-ray generator model 007HF coupled to a Rigaku CCD camera (007HF/Saturn 944+). Prior to data collection, crystals were transferred into cryo-protective solutions containing 25% glycerol, followed by flash freezing in liquid nitrogen. Rotation method was applied to a single crystal for collection of the complete data set, with 1° oscillation per frame and total wedge size of 180°. The data were then indexed, integrated, and scaled using program HKL2000 (45). The LRP6 E1/Fab structure was phased by the molecular replacement (MR) method using program Phaser (CCP4, Daresbury, England). […] The search models of Fab subunits were derived from the crystal structure of an HGFA/Fab complex (46). The search model of the β-propeller domain was a homology model generated through the ESyPred3D web server (47); the structure of the extracellular domain of LDL receptor (48) was used as the homology modeling template. […] LRP6-peptide complex structures were determined by molecular replacement, using the LRP6E1 domain from the Fab complex as the search model. Peptides were built manually into the electron density. Manual rebuilding was done with the program COOT (49). Structure refinement was carried out with programs REFMAC5 (50) and PHENIX (51) using the maximum likelihood target functions, anisotropic individual B-factor refinement (peptide complexes only.

Experiment [2] addresses T3, human LRP6 construct E1E2 (amino acids A20-E631) (human, UniProt O75581 20-631, biotinylated for biolayer interferometry).
T3 construct: range 20-631; also called LRP6 E1E2
T3 sequence (looked up): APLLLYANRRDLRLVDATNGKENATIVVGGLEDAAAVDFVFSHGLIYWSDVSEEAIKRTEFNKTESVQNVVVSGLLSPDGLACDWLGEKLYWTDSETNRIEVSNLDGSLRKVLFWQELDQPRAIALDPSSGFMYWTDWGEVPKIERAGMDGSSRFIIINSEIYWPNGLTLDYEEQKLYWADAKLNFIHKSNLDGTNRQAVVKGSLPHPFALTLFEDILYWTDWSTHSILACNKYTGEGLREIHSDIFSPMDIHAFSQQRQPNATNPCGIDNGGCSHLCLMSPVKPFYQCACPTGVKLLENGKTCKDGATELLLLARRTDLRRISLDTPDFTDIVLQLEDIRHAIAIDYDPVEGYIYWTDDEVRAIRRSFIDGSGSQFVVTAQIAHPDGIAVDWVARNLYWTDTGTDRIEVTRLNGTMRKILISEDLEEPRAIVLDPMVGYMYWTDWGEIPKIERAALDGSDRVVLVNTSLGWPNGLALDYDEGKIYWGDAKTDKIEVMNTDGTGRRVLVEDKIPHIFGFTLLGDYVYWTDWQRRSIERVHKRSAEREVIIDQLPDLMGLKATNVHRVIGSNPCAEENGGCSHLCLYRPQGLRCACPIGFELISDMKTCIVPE
Description: BLI affinity. The protocol: (§1) Binding kinetics were measured by biolayer interferometry using an Octet Red instrument (ForteBio) as previously described (11). Streptavidin (SA) biosensors were loaded with biotinylated hLRP6 in 50 mMTris, pH 8, 300 mM NaCl, 5% (v/v) glycerol, and 0.05% (w/v) Triton X-100. The loaded biosensors were washed in the same buffer before carrying out association and dissociation measurements for the indicated times. The Kd of each interaction was determined using steady state-analysis through the Octet Red software v6.3. Each reported value represents an average of three or more experiments at different concentrations, with a fitted experimental curve for which the square of the correlation coefficient (R²) is above 0.96.

The next experiment deals with Wnt1-dependent signaling. Description: Wnt-dependent TOPbrite luciferase reporter assay, cells transfected with Wnt1. The experiment is classed as cell-based. To be noted: cells stably transfected with reporter, transiently with Wnt1. The method, then: FIG. 12. Induction of a Wnt/β-catenin reporter in the presence or absence of wild-type and mutant inhibitors. Cells were transfected by Wnt1 (binds to LRP6 E1E2). Dkk1 and sclerostin variants, or the control inhibitor Fz8 CRD, were used at the indicated doses.
Wnt signaling was assessed either in mouse fibroblast L-cells or in HEK293s cells. The luciferase reporter assay in 293 cells was performed as described (52). The mouse fibroblast L-cell imaging assay was conducted essentially as described(53). Cells were treated with Wnt3a, Fz8 CRD ((US Patent Publication 20080299136; (54), LRP6, or Dkk1, or combinations of these proteins, as indicated and processed after an additional 6 h at 37° C./5% CO2.
To test whether the observed effects on binding between purified proteins were relevant to cellular signaling, Dkk1 and sclerostin activities were tested further in a Wnt-dependent TOPbrite luciferase reporter assay (52). Cells stably transfected with reporter were transfected transiently with Wnt1. The Wnt-transfected cells were treated with purified Dkk1 or sclerostin variants, and the effect on reporter induction was measured (FIG. 12). […] This is consistent with earlier observations that Wnt1 belongs to a class of Wnts signaling through the E1E2 portion of to LRP5/6 (11, 52). The Dkk1 and sclerostin mutants show activities consistent with their binding to LRP6 (FIG. 12). Sclerostin Ile119Glu (“NXI” motif) is impaired relative to wild-type in its ability to inhibit Wnt1-driven signaling, as is Dkk1 Ile42Glu.
Background: In a reporter assay the amount or activity of a reporter protein is the signal.

In experiment [3] the test system is LRP6 E1E2 variants with LRP5 BMD substitutions. Briefly: Steady-state affinity for LRP6 E1E2 variants carrying LRP5 BMD substitutions. The experiment is classed as binding, human. The method, then: FIG. 13. Introduction of LRP5 BMD substitutions into LRP6 E1E2 lowers affinity for Wnt inhibitors. The five substitutions characterized are indicated on the y-axis. Steady-state affinity measurements were made for Wnt9b, Dkk1, and sclerostin binding to each of the LRP6 variants.
as §1, with “(R^2)” for “(R²)”
Cells transfected with LRP5 variants carrying BMD mutations show reduced binding to sclerostin and are less sensitive to sclerostin inhibition of Wnt10b or Wnt6 signaling (70). To further test the effects of the BMD substitutions, we introduced several of them into LRP6 E1E2, with the results shown in FIG. 13. LRP6 E1E2 Gly158Val could not be expressed in insect cells. […] Importantly, not only is the binding to sclerostin affected (70), but the binding of Dkk1 to its E1 interaction site is also impaired.

Positions of bridges follow the written chain, without caps; N, C: chain ends. Residues, ends and D or L forms follow the SMILES beside them. No end group written: not given here.

Turning to `CC[C@H](C)[C@@H]1NC(=O)[C@H](CO)NC(=O)[C@H](CC(N)=O)NC(=O)[C@H]([C@@H](C)O)NC(=O)[C@@H](NC(=O)[C@@H](N)CO)CSSC[C@@H](C(=O)N[C@@H](Cc2ccc(O)cc2)C(=O)NCC(=O)O)NC(=O)[C@H](CCC(N)=O)NC(=O)[C@@H]2CCCN2C(=O)[C@@H]2CCCN2C1=O` [BBI mimetic] (H-SCTNSIPPQCYG-OH; disulfide 2-10; N-terminus and C-terminus assumed), on LRP6 E1, the “binding / affinity for LRP6 E1 (in words)” value is “binds”.

Regarding “amide-cyclized variant of the Dkk1 7-mer peptide: Dkk1 7-mer with Ser2 substituted by Lys and Asn7 by Asp, side chains joined by an amide bond (NKNAIKD; lactam 2-7)”, the “binding / affinity for LRP6 E1 (in words)” value is given as “binds” with LRP6 E1 (listed as cyclized peptide) and “affinity equivalent to the parent Dkk1 peptide” with LRP6 E1 (listed as target cyclic peptide).

B1: Ac-GSLCSNRIKPDTHCSS-am (disulfide) (peptide)
peptide: Ac-GSLCSNRIKPDTHCSS-NH2
modifications: disulfide 4-14 (inferred)
notes: also called Peptide C; CX9C class member of Exemplary Family 2
With B1, the binding result in experiment [1] was “binds”.

B2: Sclerostin Ile119Glu (ligand, UniProt Q9BQB4 24-213, looked up)
chain: QGWQAFKNDATEIIPELGEYPEPPPELENNKTMNRAENGGRPPHHPFETKDVSEYSCRELHFTRYVTDGPCRSAKPVTELVCSGQCGPARLLPNAEGRGKWWRPSGPDFRCIPDRYRAQRVQLLCPGGEAPRARKVRLVASCKCKRLTRFHNQSELKDFGTEAARPQKGRKPRPRARSAKANQAELENAY
notes: also called sclerostin I119E
As to B2, the “fold loss in affinity against wild-type sclerostin” value in experiment [2] came out at 19 fold. Moreover, in the experiment with Wnt1-dependent signaling, the “inhibition of Wnt1-dependent signaling (reporter induction)” value is reported as “impaired”.

B3: Wnt9b: Wnt9b, carrier-free protein from R&D Systems (protein, UniProt O14905 23-357, looked up)
Protein Wnt-9b: SYFGLTGREVLTPFPGLGTAAAPAQGGAHLKQCDLLKLSRRQKQLCRREPGLAETLRDAAHLGLLECQFQFRHERWNCSLEGRMGLLKRGFKETAFLYAVSSAALTHTLARACSAGRMERCTCDDSPGLESRQAWQWGVCGDNLKYSTKFLSNFLGSKRGNKDLRARADAHNTHVGIKAVKSGLRTTCKCHGVSGSCAVRTCWKQLSPFRETGQVLKLRYDSAVKVSSATNEALGRLELWAPARQGSLTKGLAPRSGDLVYMEDSPSFCRPSKYSPGTAGRVCSREASCSSLCCGRGYDTQSRLVAFSCHCQVQWCCYVECQQCVQEELVYTCKH
As to B3, the “effect of LRP6 BMD mutations on binding to LRP6 E1E2 (in words)” value in experiment [3] was “little to no effect”. In experiment [3] (five substitutions characterized), the “change in affinity for the LRP6 E1E2 BMD variants compared to wild type” value is recorded as no more than 5 fold.

B4: Ac-CNSIKCL-am (disulfide) (peptide)
peptide: Ac-CNSIKCL-NH2
modifications: disulfide 1-6 (inferred)
notes: also called CX4C class member of Exemplary Family 2
On to B4, for which, in experiment [1], the binding result is reported as “binds”.

B5: Ac-SNSIKFYA-am (peptide)
peptide: Ac-SNSIKFYA-NH2
notes: also called linear peptide from Exemplary Family 1; parent Ile peptide
In the case of B5, the binding result in experiment [1] is on record as “binds”.

B6: Ac-CNSIKLC-am (disulfide) (peptide)
peptide: Ac-CNSIKLC-NH2
modifications: disulfide 1-7 (inferred)
notes: also called CX5C class member of Exemplary Family 2
Consider B6, for which the binding result in experiment [1] is given as “binds”.
